Measured values taken from US20260063625A1, “COMPOSITIONS FOR AND METHODS OF DETECTING FOOD TOXINS” (priority 2022, published 2026).
Numbering of substitutions follows the chain as printed. Names may count otherwise.

B1: RcSxph: Saxiphilin of Rana (Lithobates) catesbeianus, American bullfrog, SEQ ID NO:1 (protein)
chain: MAPTFQTALFFTIISLSFAAPNAKQVRWCAISDLEQKKCNDLVGSCNVPDITLVCVLRSSTEDCMTAIKDGQADAMFLDSGEVYEASKDPYNLKPIIAEPYSSNRDLQKCLKERQQALAKKMIGHYIPQCDEKGNYQPQQCHGSTGHCWCVNAMGEKISGTNTPPGQTRATCERHELPKCLKERQVALGGDEKVLGRFVPQCDEKGNYEPQQFHGSTGYSWCVNAIGEEIAGTKTPPGKIPATCQKHDLVTTCHYAVAMVKKSSAFQFNQLKGKRSCHSGVSKTDGWKALVTVLVEKKLLSWDGPAKESIQRAMSKFFSVSCIPGATQTNLCKQCKGEEGKNCKNSHDEPYYGNYGAFRCLKEDMGDVAFLRSTALSDEHSEVYELLCPDNTRKPLNKYKECNLGTVPAGTVVTRKISDKTEDINNFLMEAQKRQCKLFSSAHGKDLMFDDSTLQLALLSSEVDAFLYLGVKLFHAMKALTGDAHLPSKNKVRWCTINKLEKMKCDDWSAVSGGAIACTEASCPKGCVKQILKGEADAVKLEVQYMYEALMCGLLPAVEEYHNKDDFGPCKTPGSPYTDFGTLRAVALVKKSNKDINWNNIKGKKSCHTGVGDIAGWVIPVSLIRRQNDNSDIDSFFGESCAPGSDTKSNLCKLCIGDPKNSAANTKCSLSDKEAYYGNQGAFRCLVEKGDVAFVPHTVVFENTDGKNPAVWAKNLKSEDFELLCLDGSRAPVSNYKSCKLSGIPPPAIVTREESISDVVRIVANQQSLYGRKGFEKDMFQLFSSNKGNNLLFNDNTQCLITFDRQPKDIMEDYFGKPYYTTVYGASRSAMSSELISACTIKHC
B2: I782A: RcSxph mutant, alanine for isoleucine at position 782 (protein)
chain: B1 chain with I801A
B3: E540A: RcSxph mutant E540A (protein)
chain: B1 chain with E559A
B4: Y558I: RcSxph mutant, isoleucine for tyrosine at position 558 (protein)
chain: B1 chain with Y577I
B5: P727A: RcSxph mutant P727A (protein)
chain: B1 chain with P746A
B6: D785N: RcSxph mutant D785N (protein)
chain: B1 chain with D804N
B7: D794A: RcSxph mutant D794A (protein)
chain: B1 chain with D813A
B8: NpSxph: Saxiphilin of Nanorana parkeri, High Himalaya frog, SEQ ID NO:2 (protein, listed as Nanorana parkeri)
chain: MALTFHTALYFTIVGLSFAASDARHVQWCTISHLEQKKCNDLVGSCNVPDITLACVYRSSTENCMAAIKDGQADAMFLDSGDVYKASLDHYNLKPIIAEPYSLHRELTKCLKHRQESLGGDKMVKGRYIPQCDEKGNYHPVQCHASTGYCWCVNANGEKIEGTNTTPVQTPPTCPSQVLTKCLKERQEALGGKRIAIGRYIPQCDEQGNYRPMQCHGSTGYCWCVNAIGEKIEGTNTPPGNTQPTCQSHDWDTCHYAVAVVKNSSTFQFGQLKGKRSCHSGLSKTDGWNAPVNVFVEKKLLPWDGLAKGSIERAVSKFFSASCIPGATETNLCKQCIGEEEKKCKSSHDEPYYGDHGAFRCLQEDKGDVAFLKNTALPDEHSGVYELLCPDNTRKPLNKYKECNLGKVPADAVVTRKAGDKTKDINDFLLEAQKKKCKLFGSPHGKDLMFDDSTTHLAPLPSEIDAFFFLGVKWYNAMKALTEDVKLPSKNKVRWCTINKPEMMKCKDWAAVSGGAIACTEASCPEHCVKQILKGEADAVTLDVQYMYMALMCGLLPAVEEYPNKDDFHPCQIPGSTIKDFGTKRAVALVKKSNKDIKWNNLKGKKSCHTHVGDIPGWVIPAGLISNQNDNIDIESFFGESCAPGSDTNSKLCKLCIGDPENPKASTRCSLSDKEAYYGNEGAFRCLVEKGDVAFVPHTVVFANTDGKNPAEWAKDLKSEDFEILCLDGSRAPVTNYRGCNLSGLPPRAIVTREESVSDVVRILINQQSLYGRNGFEKDMFQMFSSAKGQNLLFNDETQCLIEFDRQPKDIMEDYFGVRYYTAVYSASRSAVPSELIPACTFKHC
B9: E540D: RcSxph mutant E540D (protein)
chain: B1 chain with E559D
B10: D794E: RcSxph mutant D794E (protein)
chain: B1 chain with D813E
B11: Y558A: RcSxph mutant, alanine for tyrosine at position 558 (protein)
chain: B1 chain with Y577A
B12: F561A: RcSxph mutant F561A (protein)
chain: B1 chain with F580A

tested on: PtNaV1.4; assay: Two-electrode voltage clamp: Sxph rescue of PtNaV1.4 from STX block in Xenopus oocytes; format: cell-based, Phyllobates terribilis; conditions: [Sxph]:[STX] ratio, 100 nM STX

Compared with B1, B2 is lower in “Effective Rescue Ratio50 (ERR50)” value: 1.07±0.02 for the first, 0.87±0.02 for the second.

With B4 the “Effective Rescue Ratio50 (ERR50)” value was 0.81±0.01.

For B3, the “Effective Rescue Ratio50 (ERR50)” value was “eliminated”.
In the case of B5, the “Effective Rescue Ratio50 (ERR50)” value is reported as greater than 4.

tested on: not given; assay: not given; format: binding; conditions: 1.1 μM Sxph, 0-20 μM STX

B1 and B8 are the same in “DTm ([…]Tm=TmSxph+20 μM toxin−TmSxph), STX” value: 3.6 °C for the first, 3.6 °C for the second.

With B2 the “DTm ([…]Tm=TmSxph+20 μM toxin−TmSxph), STX” value was “DTm increases relative to wild-type”.
For B6, the “DTm ([…]Tm=TmSxph+20 μM toxin−TmSxph), STX” value was “DTm increases relative to wild-type”.
In the case of B3, the “DTm ([…]Tm=TmSxph+20 μM toxin−TmSxph), STX” value is reported as “complete loss of the thermal shift”.
In the case of B7, the “DTm ([…]Tm=TmSxph+20 μM toxin−TmSxph), STX” value is reported as “complete loss of the thermal shift”.

tested on: not listed separately; assay: Isothermal titration calorimetry (ITC) of STX into Sxph; format: binding; conditions: 25° C.
Description: ITC measurements were performed at 25° C. using a MicroCal PEAQ-ITC calorimeter (Malvern Panalytical). […]. This STX stock was diluted with the SEC buffer to prepare 100 μM or 300 μM STX solutions having a final buffer composition of 135 mM NaCl, 9 mM HEPES, pH 7.4. […]. The calorimetric experiment settings were: reference power, 5 μcal/s; spacing between injections, 150 s; stir speed 750 rpm; and feedback mode, high. Data were analyzed using MicroCal PEAQ-ITC Analysis Software (Malvern Panalytical) using a single binding site model. The heat of dilution from titrations of 100 μM STX in 135 mM NaCl, 9 mM HEPES, pH 7.4 into 135 mM NaCl, 9 mM HEPES, pH 7.4 was subtracted from each experiment to correct the baseline.

Going from B1 to B9, the “[…]G” value rises from -12.3 ± 0.5 kcal/mol to -9.8 ± 0.1 kcal/mol.

Going from B10 to B4, the “[…]G” value falls from -8.9 ± 0.1 kcal/mol to -12.2 ± 0.3 kcal/mol.

First: B11
Second: B5
The “[…]G” value of the first is lower: -12.2 ± 0.2 kcal/mol for the first, -10.3 ± 0.2 kcal/mol for the second.

Going from B8 to B12, the “[…]G” value rises from -11.8 ± 0.1 kcal/mol to -10.8 ± 0.1 kcal/mol.

B1 and B9 are within error of each other in “[…]H (kcal mol^−1), binding enthalpy” value: -16.1 ± 0.2 kcal/mol for the first, -16.3 ± 1.7 kcal/mol for the second.

First: B10
Second: B4
The “[…]H (kcal mol^−1), binding enthalpy” value of the first is higher: -11.8 ± 0.0 kcal/mol for the first, -15.5 ± 0.3 kcal/mol for the second.

Going from B11 to B5, the “[…]H (kcal mol^−1), binding enthalpy” value rises from -15.3 ± 0.0 kcal/mol to -11.5 ± 0.0 kcal/mol.

Compared with B8, B12 is higher in “[…]H (kcal mol^−1), binding enthalpy” value: -18.7 ± 0.2 kcal/mol for the first, -12.7 ± 0.2 kcal/mol for the second.

First: B1
Second: B9
The “[…]S (cal mol^−1 K^−1)” value of the first is higher: −12.7 ± 0.9 cal mol^−1 K^−1 for the first, −21.9 ± 5.7 cal mol^−1 K^−1 for the second.

Compared with B10, B4 is lower in “[…]S (cal mol^−1 K^−1)” value: −8.9 ± 0.1 cal mol^−1 K^−1 for the first, −10.5 ± 0.6 cal mol^−1 K^−1 for the second.

Going from B11 to B5, the “[…]S (cal mol^−1 K^−1)” value rises from −11.1 ± 1.1 cal mol^−1 K^−1 to −4.2 ± 0.9 cal mol^−1 K^−1.

Going from B8 to B12, the “[…]S (cal mol^−1 K^−1)” value rises from −23.2 ± 0.8 cal mol^−1 K^−1 to −6.6 ± 0.9 cal mol^−1 K^−1.

same assay, conditions: 25° C., listed as NpSxph WT

For B8, the “[…]H (kcal mol^−1), binding enthalpy” value was -18.7 ± 0.2 kcal/mol.

same assay, conditions: 25° C., listed as RcSxph WT

For B1, the “[…]H (kcal mol^−1), binding enthalpy” value was -16.1 ± 0.2 kcal/mol.

tested on: not listed separately; assay: Fluorescence polarization (FP) binding to fluorescein labeled STX; conditions: […]G = RT ln (Kd(XSxph)/Kd(RcSxph)); T = 298K
Description: […]; Measurements were performed at 25° C. on a Synergy H1 microplate reader (BioTek) using the polarization filter setting (excitation 485 nm, emission 528 nm). […]. The dissociation constants were calculated using GraphPad Prism by fitting fluorescence millipolarization (mP=P·10^−3, where P is polarization) as a function of Sxph concentration using the equation: P={(Pbound−Pfree) [Sxph]/(Kd+[Sxph])}+Pfree, where P is the polarization measured at a given Sxph concentration, Pfree is the […], and Pbound is the maximum polarization of Sxph bound by F-STX (Rossi and Taylor, Hansen et al.).

Going from B1 to B8, the “[…]G (kcal mol^−1) relative to RcSxph” value falls from 0 kcal/mol to -1.60 kcal/mol.

same assay, conditions: […]G = RT ln (KdSxph mutant/KdSxph); T = 298K

Going from B1 to B2, the “[…]G (kcal mol^−1) relative to wild-type RcSxph” value falls from 0 kcal/mol to -0.53 kcal/mol.

First: B6
Second: B3
The “[…]G (kcal mol^−1) relative to wild-type RcSxph” value of the first is lower: -0.30 kcal/mol for the first, 4.52 kcal/mol for the second.

First: B7
Second: B9
The “[…]G (kcal mol^−1) relative to wild-type RcSxph” value of the first is higher: 4.43 kcal/mol for the first, 1.54 kcal/mol for the second.

Compared with B10, B4 is lower in “[…]G (kcal mol^−1) relative to wild-type RcSxph” value: 2.94 kcal/mol for the first, -1.07 kcal/mol for the second.

Going from B11 to B5, the “[…]G (kcal mol^−1) relative to wild-type RcSxph” value rises from -1.00 kcal/mol to 1.21 kcal/mol.

With B12 the “[…]G (kcal mol^−1) relative to wild-type RcSxph” value was 0.48 kcal/mol.
